# Assay results reported in patent publication US20050163796A1.
# Target: HLA-B*0702 on HLA-B*0702 transfected TAP- T2 cells (human)
# Experiment: HLA-B*0702 stabilisation on T2-B*0702 cells, FACS with ME.1 mAb; concentration to reach 20% of maximal fluorescence relative to R10V
# Conditions: scale: ratio of concentrations, tested peptide / R10V reference
row,Binder,RA (relative affinity)
1,QPIQIAIAAL (modifications not checked) [Q10AL],6.5
2,RPVVSTQLLL (modifications not checked) [R10LL],2.25
3,LPPLDRLTL (modifications not checked) [L9TL],3.51
4,PPQGSQTHQV (modifications not checked) [P10QV],8.97
5,SPHPRISSEV (modifications not checked) [S10EV],1.11
6,TPKKIKPPL (modifications not checked) [T9PL],1.29
7,KPPLPSVTKL (modifications not checked) [K10KL],3.55
8,LPLPPLDRL (modifications not checked) [L9RL],6.13
9,APTKAKRRVV (modifications not checked) [A10VV],1.14
10,IPLGDARLVI (modifications not checked) [I10VI],2.33
11,HPRISSEVHI (modifications not checked) [H10HI],3.7

# Target: HLA-B*0702 on HLA-B*0702 transfected TAP- T2 cells (human)
# Experiment: not given
# Conditions: not given
row,Binder,RA (relative affinity)
1,YPLASLRSLF (modifications not checked) [Y10LF],3.25

# Same assay, conditions: scale: ratio of concentrations, tested peptide / R10V reference
row,Binder,RA (relative affinity)
1,GPHMPVYPQT (modifications not checked) [G10QT],22
2,QPPLYFVHQM (modifications not checked) [Q10QM],49
3,MPVYPQTPT (modifications not checked) [M9PT],0.94
4,QPRSDTHVF (modifications not checked) [Q9VF],1.56
5,AAISPVLRL (modifications not checked) [A9RL],15
6,SPVLRLRPPV (modifications not checked) [S10PV],0.85
